For this experiment, the target named is T1, FcγRIIb (human, UniProt P31994 43-217).
T1 construct: extracellular domain; also called 2b; FcgRIIb
T1 sequence (looked up): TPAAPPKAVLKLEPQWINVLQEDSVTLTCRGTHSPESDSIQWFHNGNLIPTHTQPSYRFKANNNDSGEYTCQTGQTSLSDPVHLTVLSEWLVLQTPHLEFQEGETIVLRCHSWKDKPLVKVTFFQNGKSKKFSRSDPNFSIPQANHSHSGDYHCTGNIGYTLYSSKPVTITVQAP
Put plainly: SPR (Biacore), binding relative to GpH7-B3/GpL16-k0 = 100. On the procedure:
Analysis of interaction between objective antibody and the FcγR was carried out using Biacore T100 (GE Healthcare). HBS-EP+ (GE Healthcare) was used as the running buffer, and the measurement temperature was set to 25° C. Chips produced by immobilizing the antigen peptide by the amine coupling method to a Series S Sencor Chip CM5 (GE Healthcare), or alternatively, chips produced by allowing preliminarily biotinylated antigen peptides to interact with and immobilize onto a Series S Sensor Chip SA (certified) (GE Healthcare) were used. Antibodies of interest were captured onto an antigen peptide-immobilized chip, and allowed to interact to each FcγR diluted with running buffer. To regenerate and repeatedly use the chip, the antibodies captured on the chip were washed off by reacting 10 mM glycine-HCl, pH 1.5.
The FcγR-binding activity of each antibody was assessed primarily using as an indicator the FcγR-binding activity and dissociation constant for FcγR.
On the technique in general: In SPR one partner is held on a chip, and binding of the other changes the refractive index at the surface.

B1: GpH7-B3 variant L234_20W/GpL16-k0 (antibody, human IgG1, kappa)
heavy: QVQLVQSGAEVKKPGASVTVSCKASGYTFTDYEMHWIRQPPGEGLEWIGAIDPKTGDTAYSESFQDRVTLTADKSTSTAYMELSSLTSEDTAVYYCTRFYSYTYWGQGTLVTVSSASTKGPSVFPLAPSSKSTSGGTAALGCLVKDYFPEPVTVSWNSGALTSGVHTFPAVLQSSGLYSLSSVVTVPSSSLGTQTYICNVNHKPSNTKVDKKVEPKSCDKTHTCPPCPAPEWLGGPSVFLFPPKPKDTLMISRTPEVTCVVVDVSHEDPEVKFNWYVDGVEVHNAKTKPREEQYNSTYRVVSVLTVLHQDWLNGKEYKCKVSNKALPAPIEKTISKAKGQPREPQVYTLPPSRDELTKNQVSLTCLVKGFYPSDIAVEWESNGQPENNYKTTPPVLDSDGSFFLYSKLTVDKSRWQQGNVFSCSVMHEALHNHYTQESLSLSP
light: DIVMTQSPLSLPVTPGEPASISCQASESLVHSNRNTYLHWYLQKPGQSPQLLIYKVSNRFSGVPDRFSGSGSGTDFTLKISRVEAEDVGVYYCSQNTHVPPTFGQGTKVEIERTVAAPSVFIFPPSDEQLKSGTASVVCLLNNFYPREAKVQWKVDNALQSGNSQESVTEQDSKDSTYSLSSTLTLSKADYEKHKVYACEVTHQGLSSPVTKSFNRGEC
notes: also called Ho Ab L234_20W
Consider B1, for which the Ho/Con_2b is 80.6 % of control.

B2: GpH7-B3 variant L328_09D/GpL16-k0 (antibody, human IgG1, kappa)
heavy: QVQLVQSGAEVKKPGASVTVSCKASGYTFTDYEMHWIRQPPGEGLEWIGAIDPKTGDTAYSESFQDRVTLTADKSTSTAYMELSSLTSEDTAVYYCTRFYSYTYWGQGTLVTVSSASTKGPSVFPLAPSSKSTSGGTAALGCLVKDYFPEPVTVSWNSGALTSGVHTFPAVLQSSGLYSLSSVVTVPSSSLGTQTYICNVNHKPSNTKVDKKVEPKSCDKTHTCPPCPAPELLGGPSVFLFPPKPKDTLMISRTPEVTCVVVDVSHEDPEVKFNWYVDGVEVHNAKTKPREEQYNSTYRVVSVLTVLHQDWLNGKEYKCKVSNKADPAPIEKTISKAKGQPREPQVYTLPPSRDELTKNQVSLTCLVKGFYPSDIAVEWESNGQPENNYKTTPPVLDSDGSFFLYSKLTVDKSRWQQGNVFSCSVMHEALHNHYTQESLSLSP
light: DIVMTQSPLSLPVTPGEPASISCQASESLVHSNRNTYLHWYLQKPGQSPQLLIYKVSNRFSGVPDRFSGSGSGTDFTLKISRVEAEDVGVYYCSQNTHVPPTFGQGTKVEIERTVAAPSVFIFPPSDEQLKSGTASVVCLLNNFYPREAKVQWKVDNALQSGNSQESVTEQDSKDSTYSLSSTLTLSKADYEKHKVYACEVTHQGLSSPVTKSFNRGEC
notes: also called Ho Ab L328_09D
Consider B2, for which the Ho/Con_2b is 159 % of control.

B3: GpH7-B3 variant L235_15Y/GpL16-k0 (antibody, human IgG1, kappa)
heavy: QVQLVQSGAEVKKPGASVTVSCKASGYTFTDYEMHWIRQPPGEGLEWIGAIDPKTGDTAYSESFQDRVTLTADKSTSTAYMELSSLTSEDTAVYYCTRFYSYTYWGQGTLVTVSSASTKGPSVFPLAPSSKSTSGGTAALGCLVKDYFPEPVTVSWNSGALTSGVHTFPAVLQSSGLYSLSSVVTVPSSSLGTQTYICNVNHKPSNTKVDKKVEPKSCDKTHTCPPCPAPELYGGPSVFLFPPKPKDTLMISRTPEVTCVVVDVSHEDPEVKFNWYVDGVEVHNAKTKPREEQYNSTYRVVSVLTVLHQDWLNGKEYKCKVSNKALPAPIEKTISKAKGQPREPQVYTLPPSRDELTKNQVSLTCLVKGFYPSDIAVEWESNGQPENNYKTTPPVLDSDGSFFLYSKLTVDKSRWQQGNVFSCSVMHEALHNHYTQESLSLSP
light: DIVMTQSPLSLPVTPGEPASISCQASESLVHSNRNTYLHWYLQKPGQSPQLLIYKVSNRFSGVPDRFSGSGSGTDFTLKISRVEAEDVGVYYCSQNTHVPPTFGQGTKVEIERTVAAPSVFIFPPSDEQLKSGTASVVCLLNNFYPREAKVQWKVDNALQSGNSQESVTEQDSKDSTYSLSSTLTLSKADYEKHKVYACEVTHQGLSSPVTKSFNRGEC
notes: also called Ho Ab L235_15Y
Consider B3, for which the Ho/Con_2b is 127 % of control.

B4: GpH7-B3 variant L235_20W/GpL16-k0 (antibody, human IgG1, kappa)
heavy: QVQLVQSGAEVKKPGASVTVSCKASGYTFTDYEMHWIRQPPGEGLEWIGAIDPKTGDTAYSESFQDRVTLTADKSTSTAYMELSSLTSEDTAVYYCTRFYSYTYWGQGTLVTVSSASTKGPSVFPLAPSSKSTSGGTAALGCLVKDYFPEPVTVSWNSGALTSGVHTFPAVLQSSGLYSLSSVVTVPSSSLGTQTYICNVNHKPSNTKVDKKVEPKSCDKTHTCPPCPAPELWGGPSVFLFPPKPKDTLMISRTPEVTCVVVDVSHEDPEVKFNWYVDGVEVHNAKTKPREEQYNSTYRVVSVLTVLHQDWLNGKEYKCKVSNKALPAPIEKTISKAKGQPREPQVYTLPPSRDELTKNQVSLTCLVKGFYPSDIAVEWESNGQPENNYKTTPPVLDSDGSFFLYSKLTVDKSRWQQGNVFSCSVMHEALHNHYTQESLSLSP
light: DIVMTQSPLSLPVTPGEPASISCQASESLVHSNRNTYLHWYLQKPGQSPQLLIYKVSNRFSGVPDRFSGSGSGTDFTLKISRVEAEDVGVYYCSQNTHVPPTFGQGTKVEIERTVAAPSVFIFPPSDEQLKSGTASVVCLLNNFYPREAKVQWKVDNALQSGNSQESVTEQDSKDSTYSLSSTLTLSKADYEKHKVYACEVTHQGLSSPVTKSFNRGEC
notes: also called Ho Ab L235_20W
In the case of B4, the Ho/Con_2b is 116 % of control.

B5: GpH7-B3 variant L328_02A/GpL16-k0 (antibody, human IgG1, kappa)
heavy: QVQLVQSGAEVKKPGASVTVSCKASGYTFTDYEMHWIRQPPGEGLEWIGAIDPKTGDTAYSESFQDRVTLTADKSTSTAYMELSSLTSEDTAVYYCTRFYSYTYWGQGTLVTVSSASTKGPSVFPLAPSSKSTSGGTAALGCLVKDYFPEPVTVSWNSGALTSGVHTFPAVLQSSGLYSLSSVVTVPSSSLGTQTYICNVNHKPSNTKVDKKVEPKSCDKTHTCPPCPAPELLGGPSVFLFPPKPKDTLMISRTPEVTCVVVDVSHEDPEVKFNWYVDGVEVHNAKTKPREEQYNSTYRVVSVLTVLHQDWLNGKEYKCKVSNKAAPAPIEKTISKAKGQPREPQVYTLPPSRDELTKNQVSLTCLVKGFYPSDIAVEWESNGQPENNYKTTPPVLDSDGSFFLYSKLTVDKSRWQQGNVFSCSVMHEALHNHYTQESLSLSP
light: DIVMTQSPLSLPVTPGEPASISCQASESLVHSNRNTYLHWYLQKPGQSPQLLIYKVSNRFSGVPDRFSGSGSGTDFTLKISRVEAEDVGVYYCSQNTHVPPTFGQGTKVEIERTVAAPSVFIFPPSDEQLKSGTASVVCLLNNFYPREAKVQWKVDNALQSGNSQESVTEQDSKDSTYSLSSTLTLSKADYEKHKVYACEVTHQGLSSPVTKSFNRGEC
notes: also called Ho Ab L328_02A
For B5, the Ho/Con_2b is 117 % of control.

B6: GpH7-B3 variant L235_09D/GpL16-k0 (antibody, human IgG1, kappa)
heavy: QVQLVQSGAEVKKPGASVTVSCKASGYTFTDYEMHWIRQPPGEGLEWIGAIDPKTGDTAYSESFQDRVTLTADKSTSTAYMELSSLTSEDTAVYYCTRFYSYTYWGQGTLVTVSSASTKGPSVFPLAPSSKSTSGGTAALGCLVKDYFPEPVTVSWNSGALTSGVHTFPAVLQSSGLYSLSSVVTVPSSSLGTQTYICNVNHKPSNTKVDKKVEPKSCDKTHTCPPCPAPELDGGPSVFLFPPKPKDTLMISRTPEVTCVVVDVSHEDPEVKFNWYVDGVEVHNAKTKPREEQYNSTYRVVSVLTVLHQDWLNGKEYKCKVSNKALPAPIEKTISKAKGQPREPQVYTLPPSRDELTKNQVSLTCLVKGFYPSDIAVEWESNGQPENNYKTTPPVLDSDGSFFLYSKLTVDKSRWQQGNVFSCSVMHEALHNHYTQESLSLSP
light: DIVMTQSPLSLPVTPGEPASISCQASESLVHSNRNTYLHWYLQKPGQSPQLLIYKVSNRFSGVPDRFSGSGSGTDFTLKISRVEAEDVGVYYCSQNTHVPPTFGQGTKVEIERTVAAPSVFIFPPSDEQLKSGTASVVCLLNNFYPREAKVQWKVDNALQSGNSQESVTEQDSKDSTYSLSSTLTLSKADYEKHKVYACEVTHQGLSSPVTKSFNRGEC
notes: also called Ho Ab L235_09D
Turning to B6, the Ho/Con_2b is 78.7 % of control.

B7: GpH7-B3 variant L328_10E/GpL16-k0 (antibody, human IgG1, kappa)
heavy: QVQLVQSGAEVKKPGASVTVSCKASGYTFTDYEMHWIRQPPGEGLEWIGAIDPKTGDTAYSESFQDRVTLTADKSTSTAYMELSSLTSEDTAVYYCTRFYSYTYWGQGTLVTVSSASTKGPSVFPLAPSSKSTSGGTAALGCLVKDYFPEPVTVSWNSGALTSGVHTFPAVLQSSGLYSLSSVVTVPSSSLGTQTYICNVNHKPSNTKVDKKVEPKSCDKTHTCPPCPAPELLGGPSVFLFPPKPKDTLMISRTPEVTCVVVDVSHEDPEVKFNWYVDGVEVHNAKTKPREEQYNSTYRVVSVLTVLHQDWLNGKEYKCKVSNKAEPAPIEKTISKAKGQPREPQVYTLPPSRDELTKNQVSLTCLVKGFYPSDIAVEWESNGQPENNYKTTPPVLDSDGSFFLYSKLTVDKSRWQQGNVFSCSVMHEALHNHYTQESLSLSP
light: DIVMTQSPLSLPVTPGEPASISCQASESLVHSNRNTYLHWYLQKPGQSPQLLIYKVSNRFSGVPDRFSGSGSGTDFTLKISRVEAEDVGVYYCSQNTHVPPTFGQGTKVEIERTVAAPSVFIFPPSDEQLKSGTASVVCLLNNFYPREAKVQWKVDNALQSGNSQESVTEQDSKDSTYSLSSTLTLSKADYEKHKVYACEVTHQGLSSPVTKSFNRGEC
notes: also called Ho Ab L328_10E
B7: the Ho/Con_2b is 146 % of control.

B8: GpH7-B3 variant L235_04F/GpL16-k0 (antibody, human IgG1, kappa)
heavy: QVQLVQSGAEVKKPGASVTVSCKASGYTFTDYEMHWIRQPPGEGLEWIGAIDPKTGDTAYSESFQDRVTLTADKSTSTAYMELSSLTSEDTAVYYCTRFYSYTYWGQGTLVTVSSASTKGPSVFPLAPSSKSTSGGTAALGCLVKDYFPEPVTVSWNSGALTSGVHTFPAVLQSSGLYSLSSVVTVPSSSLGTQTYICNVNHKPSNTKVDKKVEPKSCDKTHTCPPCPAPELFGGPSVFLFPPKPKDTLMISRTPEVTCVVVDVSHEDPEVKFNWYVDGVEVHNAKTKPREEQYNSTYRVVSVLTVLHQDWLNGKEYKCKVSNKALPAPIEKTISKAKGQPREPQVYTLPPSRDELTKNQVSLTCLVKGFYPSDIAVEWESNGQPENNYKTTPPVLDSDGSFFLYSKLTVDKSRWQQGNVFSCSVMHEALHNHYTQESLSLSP
light: DIVMTQSPLSLPVTPGEPASISCQASESLVHSNRNTYLHWYLQKPGQSPQLLIYKVSNRFSGVPDRFSGSGSGTDFTLKISRVEAEDVGVYYCSQNTHVPPTFGQGTKVEIERTVAAPSVFIFPPSDEQLKSGTASVVCLLNNFYPREAKVQWKVDNALQSGNSQESVTEQDSKDSTYSLSSTLTLSKADYEKHKVYACEVTHQGLSSPVTKSFNRGEC
notes: also called Ho Ab L235_04F
With B8, the Ho/Con_2b is 111 % of control.

Source of the values: patent US20180155451A1 (published 2018).
